Test results published in patent US20200109196A1 (MOGAM INSTITUTE FOR BIOMEDICAL RESEARCH, published 2020).
Residue numbers refer to the chain shown, from its start.

T1: human CEACAM1 expressed on the cell surface (CEACAM1-Jurkat T cells); HEK293 cells transfected with human … (human, UniProt P13688 35-526)
T1 construct: whole, on cells; also called CCM1
T1 sequence (looked up): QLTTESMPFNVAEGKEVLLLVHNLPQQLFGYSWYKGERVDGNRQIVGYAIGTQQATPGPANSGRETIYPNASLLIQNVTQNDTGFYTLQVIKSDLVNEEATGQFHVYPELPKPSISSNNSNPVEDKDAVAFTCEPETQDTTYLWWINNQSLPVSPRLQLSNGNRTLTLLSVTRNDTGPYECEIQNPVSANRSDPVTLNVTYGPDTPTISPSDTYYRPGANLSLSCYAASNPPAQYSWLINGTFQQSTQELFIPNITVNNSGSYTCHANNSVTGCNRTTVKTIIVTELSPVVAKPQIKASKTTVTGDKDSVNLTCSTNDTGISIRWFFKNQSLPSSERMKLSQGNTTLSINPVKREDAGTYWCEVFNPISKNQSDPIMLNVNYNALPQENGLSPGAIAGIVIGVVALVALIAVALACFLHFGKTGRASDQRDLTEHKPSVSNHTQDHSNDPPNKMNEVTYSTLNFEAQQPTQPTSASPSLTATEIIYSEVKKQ

T2: CEACAM3 expressed on the surface of HEK293 cells (human, UniProt P40198 35-252)
T2 construct: whole, on cells; GFP-tagged clone; also called CEACAM3-GFP
T2 sequence (looked up): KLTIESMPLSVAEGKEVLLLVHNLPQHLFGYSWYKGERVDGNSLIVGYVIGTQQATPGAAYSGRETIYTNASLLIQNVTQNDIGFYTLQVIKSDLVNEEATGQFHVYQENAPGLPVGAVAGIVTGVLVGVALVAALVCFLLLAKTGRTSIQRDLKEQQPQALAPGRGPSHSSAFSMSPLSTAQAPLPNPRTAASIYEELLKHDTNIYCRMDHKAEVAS

T3: CEACAM6 expressed on the surface of HEK293 cells (human, UniProt P40199 35-320)
T3 construct: whole, on cells; GFP-tagged clone; also called CEACAM6-GFP
T3 sequence (looked up): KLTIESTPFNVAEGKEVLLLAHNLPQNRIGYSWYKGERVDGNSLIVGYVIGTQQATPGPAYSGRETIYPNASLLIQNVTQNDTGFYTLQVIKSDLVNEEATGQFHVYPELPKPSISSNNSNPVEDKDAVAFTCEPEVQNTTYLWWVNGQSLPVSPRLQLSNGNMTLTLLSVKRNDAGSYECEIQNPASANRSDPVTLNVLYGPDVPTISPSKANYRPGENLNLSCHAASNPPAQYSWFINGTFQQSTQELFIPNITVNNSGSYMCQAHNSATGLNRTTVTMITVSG

B1: C25 (antibody, human IgG4 S228P, lambda, V domains shown)
VH: EVQLLESGGGLVQPGGSLRLSCAASGFTFSNYAMSWVRQAPGKGLEWVSVISHGGGSIYYADSVKGRLTISRDNSKNTLYLQMNSLRAEDTAVYYCARDPTKGYAPTFDYWGQGTLVTVSS
VL: QSVLTQPPSASGTPGQRVTISCSGSSSNIGNNYVSWYQQLPGTAPKLLIYADSKRPSGVPDRFSGSKSGTSASLAISGLRSEDEADYYCGAWDASLNGYVFGGGTKLTVLG
notes: Made in ExpiHEK293F cells, protein A purified. huIgG4 is the isotype control and anti-huIgG4 the detection reagent; the isotype is not otherwise stated; also called anti-CEACAM1 antibody C25
B2: 4R9 (antibody, human IgG4 S228P, lambda, V domains shown)
VH: B1 VH
VL: B1 VL with K54R, A94L
notes: also called C25-derived clone 4R9
B3: 4R9_H4-n20 (antibody, human IgG4 S228P, lambda, V domains shown)
VH: B1 VH with T28N
VL: B1 VL with K54R, A94L
notes: also called C25-derived clone 4R9_H4-n20
B4: 4R26 (antibody, human IgG4 S228P, lambda, V domains shown)
VH: B1 VH
VL: B1 VL with P56L, A94G, S95R
notes: also called C25-derived clone 4R26
B5: 4R9_H2-2 (antibody, human IgG4 S228P, lambda, V domains shown)
VH: B1 VH with T107L
VL: B1 VL with K54R, A94L
notes: also called C25-derived clone 4R9_H2-2

Target: T1, human CEACAM1 expressed on the cell …
Test: flow cytometry on CEACAM1-Jurkat T cells, PE goat anti-human F(ab)2, MFI [b]
Protocol: The CEACAM1-Jurkat T cells prepared above were treated with Fc block solution and incubated for 15 minutes. […] Herein, it is noted that the cell numbers were adjusted to 1×10⁵. The cells incubated with the antibodies were repeatedly subjected to the washing procedure of resuspending the cells in a FACS buffer and centrifuging the solution at 1,500 rpm.
PE-conjugated goat anti-human F(ab)₂; (Sigma; Cat. No. P8047)) was diluted in the FACS buffer at a volume ratio of 1:200, and then added to the cells at 100 μl/well. Cells were resuspended well and incubated at 4° C. for 30 minutes in a dark condition.
The cells incubated with the fixation buffer were repeatedly subjected to the washing procedure of resuspending the cells in a FACS buffer, centrifuging the solution at 1,500 rpm, and discarding the supernatant. The washed cells were resuspended in 200 μl of a FACS buffer, and the mean fluorescence intensities (MFIs) of the PE-labeled cells were monitored by a FACS LSR-Fortessa. All FACS analyses were conducted using the FlowJo software.

Row | EC50 (read off the curve) [mg/L] | Binder
1 | ~0.6 | B1
2 | ~0.05 | B2
3 | ~0.4 | B3
4 | ~0.08 | B4
5 | ~0.04 | B5

Target: T2, CEACAM3 expressed on the surface of …
Test: flow cytometry on transfected HEK293 cells (GFP+ gate), PE goat anti-huIgG4 [b]
Protocol: (§1) HEK293 cells were added with 10 μg of each pEF1α-AcGFP-N1 vector (Clontech, Cat. No. 631973) as a control vector, CEACAM1, CEACAM3, CEACAM5, CEACAM6 and CEACAM8 plasmid vectors, followed by transfection under the condition of pulse voltage 1,100 V, pulse width 20 ms and pulse number 2. After 48 hours of transfection, GFP expression was confirmed by fluorescence microscopy. The cells were detached by treatment with 1 ml of TrypLE Express Solution (ThermoFisher Scientific; Cat. No. 12605010), resuspended in 9 ml of DMEM (Gibco, Cat. No. 11995-065) supplemented with 10% (v/v) FBS, and centrifuged at 1,200 rpm for 5 minutes, to remove the resulting supernatant.
(§2) After washing once with PBS, the cells were resuspended in a FACS buffer to obtain a concentration of 5×10⁵ cells/100 μl. Human Fc Block solution was added to the samples at 1 μl/sample, which were incubated at 4° C. for 10 minutes. The cells were treated with hulgG4 or one of the anti-CEACAM1 clones listed at 1 μg/5×10⁵ cells, which were incubated at 4° C. for 10 minutes. After washing with FACS buffer, the PE-labeled goat-anti-huIgG4 antibodies were diluted at a ratio of 1:200 in a FACS buffer, and added to the samples at 100 μl/sample, which were incubated at 4° C. for 30 minutes. The samples were filled with a FACS buffer up to 200 μl, and then centrifuged at 1,200 rpm for 5 minutes, to remove the resulting supernatant. The fixation buffer (300 μl) was added to resuspend the cells. The cells expressing GFP were selected in the FACS LSR-Fortessa device, and the expression of CEACAM members were evaluated respectively using the antibody specific to each CEACAM member (Table 3). Also, the binding of anti-CEACAM1 antibodies was evaluated by PE fluorescence channel and analyzed using the FlowJo software.

Row | binding result | Binder
6 | no binding | B2
7 | no binding | B3
8 | no binding | B4
9 | no binding | B5

Target: T3, CEACAM6 expressed on the surface of …
Test: as above
Protocol: as §1, §2

Row | binding result | Binder
10 | no binding | B2
11 | no binding | B3
12 | no binding | B4
13 | no binding | B5
